Data set [1] addresses T1, TrxA-His6-TbRAP1(639-761) (Trypanosoma brucei, UniProt C1JEX5 639-761).
T1 sequence: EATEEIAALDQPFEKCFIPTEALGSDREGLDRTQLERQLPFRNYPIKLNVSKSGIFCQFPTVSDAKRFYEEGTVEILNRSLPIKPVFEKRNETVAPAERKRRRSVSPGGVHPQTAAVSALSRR
The data set can be described thus: competition.

Data set [2] has as its target T2, TbRAP1(639-761), tag removed (Trypanosoma brucei, UniProt C1JEX5 639-761).
T2 sequence: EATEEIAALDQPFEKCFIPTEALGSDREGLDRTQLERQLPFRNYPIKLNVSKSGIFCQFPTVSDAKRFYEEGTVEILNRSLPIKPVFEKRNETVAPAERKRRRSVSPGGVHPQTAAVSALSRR
Nature of the data set: NMR HSQC.

The target in data set [3] is T3, TbRAP1(639-761) 5A, tag removed (Trypanosoma brucei, UniProt C1JEX5 639-761, R737A;K738A;R739A;R740A;R741A).
T3 sequence: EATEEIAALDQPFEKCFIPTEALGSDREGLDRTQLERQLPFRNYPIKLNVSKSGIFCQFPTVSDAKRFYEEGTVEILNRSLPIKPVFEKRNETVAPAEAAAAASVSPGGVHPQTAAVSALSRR
The data set can be described thus: NMR HSQC.

For data set [4], the target named is T4, TrxA-His6-TbRAP1(639-733) (Trypanosoma brucei, UniProt C1JEX5 639-733).
T4 sequence: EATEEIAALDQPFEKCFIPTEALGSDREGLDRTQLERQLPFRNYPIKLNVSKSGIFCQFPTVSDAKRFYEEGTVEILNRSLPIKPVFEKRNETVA
The data set can be described thus: EMSA.

The target of data set [5] is T1, TrxA-His6-TbRAP1(639-761). Nature of the data set: EMSA.
In data set [6] the target is T5, TrxA-His6-TbRAP1(639-761) 5A (Trypanosoma brucei, UniProt C1JEX5 639-761, R737A;K738A;R739A;R740A;R741A).
T5 sequence: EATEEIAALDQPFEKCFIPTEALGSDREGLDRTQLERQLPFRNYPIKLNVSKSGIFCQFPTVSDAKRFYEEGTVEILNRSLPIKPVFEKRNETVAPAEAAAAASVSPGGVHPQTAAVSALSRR
Nature of the data set: EMSA.

The target of data set [7] is T6, TrxA-His6-TbRAP1(639-761) 2SA (Trypanosoma brucei, UniProt C1JEX5 639-761, S742A;S744A).
T6 sequence: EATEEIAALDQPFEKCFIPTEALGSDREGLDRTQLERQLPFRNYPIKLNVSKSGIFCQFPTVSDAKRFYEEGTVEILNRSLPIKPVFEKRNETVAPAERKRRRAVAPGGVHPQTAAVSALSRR
The data set can be described thus: EMSA.

Data set [8] has as its target T1, TrxA-His6-TbRAP1(639-761). The data set can be described thus: EMSA. This is another data set of the same source.

The source of these data is article PMC7500927.

B1: dsDNA 200 bp random (dsDNA)
DNA 1: CGCGCGTAATACGACTCACTATAGGGCGAATTGGGTACCGGGCCCCCCCTCGAGGTCGACGGTATCGATAAGCTTGATATCGAATTCCAAAGAAGCCATGCGCCGTGCAGAGCAGGAAAAAGCCACACGGGAACTCCTCCTGCAACAAACTTCAGCACCACATGCATCATCAGTTACATCCGGATCCACTAGTTCTAG
DNA 2: CTAGAACTAGTGGATCCGGATGTAACTGATGATGCATGTGGTGCTGAAGTTTGTTGCAGGAGGAGTTCCCGTGTGGCTTTTTCCTGCTCTGCACGGCGCATGGCTTCTTTGGAATTCGATATCAAGCTTATCGATACCGTCGACCTCGAGGGGGGGCCCGGTACCCAATTCGCCCTATAGTGAGTCGTATTACGCGCG
For the molecule B1, the binding result in data set [1] is “binds”.

B2: random dsDNA 18 bp (NMR) (dsDNA)
DNA 1: TGTTGAGGAGGTGGTGAT
DNA 2: ATCACCACCTCCTCAACA
In the case of B2, the binding result in data set [2] was “binds”; in data set [3], “no binding”.

B3: ssDNA 100 nt random (ssDNA)
DNA: AATTCCAAAGAAGCCATGCGCCGTGCAGAGCAGGAAAAAGCCACACGGGAACTCCTCCTGCAACAAACTTCAGCACCACATGCATCATCAGTTACATCCG
For the molecule B3, the binding result in data set [4] is reported as “no binding”; in data set [6] it was “no binding”; in data set [7] it was “binds”. The molecule further displayed a Kd in data set [5] of 0.31 µM.

B4: dsDNA 150 bp random (dsDNA)
DNA 1: GTACCGGGCCCCCCCTCGAGGTCGACGGTATCGATAAGCTTGATATCGAATTCAATTCCAAAGAAGCCATGCGCCGTGCAGAGCAGGAAAAAGCCACACGGGAACTCCTCCTGCAACAAACTTCAGCACCACATGCATCATCAGTTACATCCGGGATC
DNA 2: GATCCCGGATGTAACTGATGATGCATGTGGTGCTGAAGTTTGTTGCAGGAGGAGTTCCCGTGTGGCTTTTTCCTGCTCTGCACGGCGCATGGCTTCTTTGGAATTGAATTCGATATCAAGCTTATCGATACCGTCGACCTCGAGGGGGGGCCCGGTAC
Consider B4, for which, in data set [8], the binding result was “binds”.

B5: dsDNA 100 bp random (dsDNA)
DNA 1: GAATTCCAAAGAAGCCATGCGCCGTGCAGAGCAGGAAAAAGCCACACGGGAACTCCTCCTGCAACAAACTTCAGCACCACATGCATCATCAGTTACATCCGGGATCC
DNA 2: GGATCCCGGATGTAACTGATGATGCATGTGGTGCTGAAGTTTGTTGCAGGAGGAGTTCCCGTGTGGCTTTTTCCTGCTCTGCACGGCGCATGGCTTCTTTGGAATTC
Take B5: the binding result in data set [4] and in data set [6] was “no binding” each time. The molecule further displayed a Kd in data set [5] of 21.5 µM.

B6: dsDNA 80 bp random (dsDNA)
DNA 1: CGTGCAGAGCAGGAAAAAGCCACACGGGAACTCCTCCTGCAACAAACTTCAGCACCACATGCATCATCAGTTACATCCGG
DNA 2: CCGGATGTAACTGATGATGCATGTGGTGCTGAAGTTTGTTGCAGGAGGAGTTCCCGTGTGGCTTTTTCCTGCTCTGCACG
For the molecule B6, the binding result in data set [5] is “binds”.
